{"source": "paper PMC9889962", "about": "(Antibody Therapeutics, 2023)", "binders": {"B1": {"name": "LiVE-Longer YTE chimera (ACE-2 LVE/STR-YTE fusion protein) (Fc fusion)", "chain": "QSTIEEQAKLFLDKFNVEAEDLFYQSSLASWNYNTNITEENVQNMNNAGDKWSAFLKEQSTLAQMYPLQEIQELTVKLQLQALQQNGSSVLSEDKSKRLNTILNTMSTIYSTGKVCNPDNPQECLLLEPGLNEIMANSLDYNERLWAWESWRSEVGKQLRPLYEEYVVLKNEMARANHYEDYGDYWRGDYEVNGVDGYDYSRGQLIEDVEHTFEEIKPLYEHLHAYVRAKLMNAYPSYISPIGCLPAHLLGDMWGRFWTNLYSLTVPFGQKPNIDVTDAMVDQAWDAQRIFKEAEKFFVSVGLPNMTQGFWENSMLTDPGNVQKAVCHPTAWDLGKGDFRILMCTKVTMDDFLTAHHEMGHIQYDMAYAAQPFLLRNGANEGFHEAVGEIMSLSAATPKHLKSIGLLSPDFQEDNETEINFLLKQALTIVGTLPFTYMLEKWRWMVFKGEIPKDQWMKKWWEMKREIVGVVEPVPHDETYCDPASLFHVSNDYSFIRYYTRTLYQFQFQEALCQAAKHEGPLHKCDISNSTEAGQKLFNMLRLGKSEPWTLALENVVGAKNMNVRPLLNYFEPLFTWLKDQNKNSFVGWSTDWSPYADQSIKVRISLKSALGDKAYEWNDNEMYLFRSSVAYAMRQYFLKVKNQMILFGEEDVRVANLKPRISFNFFVTAPKNVSDIIPRTEVEKAIRMSRSRINDAFRLNDNSLEFLGIQPTLGPPNQPPVS"}}, "molecular_target": "T1, FcRn receptor (UniProt P55899 24-365)", "T1 construct": "also called purified FcRn", "experiment": "SPR", "conditions": "both partners purified"}
{"binder": "B1", "values": [{"measurement": "Kd", "value": 27, "unit": "nM"}]}
